# Assay results as given in the supplement of paper PMC9170038.
# Tested on: K4 kissing-loop RNA reporter
# Assay: apparent KD of K4 kissing-loop reporter; higher = weaker reporter binding
# Settings: Eterna round: R107; input ligand: theophylline 20 uM
# Description: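 RNA-MaP round R107: designed RNA switches with theophylline, tryptophan, arginine or FMN aptamers are transcribed on-chip within common flanks. They are titrated with a labelled K4 kissing-loop RNA reporter in RNA-MaP buffer (100 mM Tris pH 7.5, 80 mM KCl, 4 mM MgCl2), without ligand or with the indicated ligand. Median apparent KD per design.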
# 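Further: bound reporter read as fluorescence of individual clusters on recovered sequencing chips by microscopy, with normalized cluster intensities fitted with a binding model.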
row,Sequence,apparent KD of K4 kissing-loop reporter [µM]
1,AGUGAUGUUUCUUUUAAGAGUGAUGUUUUUCGAGGACCGGUACGGCCGCCACUCGAGUGAUGAGUGCGUUGUUGUGAUGUUUAGU [#12 K4 Tryptophan A Exclusion],0.459
2,GCCGUACGCAUGGAUACCAGCUGCGAAGUGAUGUUUCGGGCGAUCAAAGGAUCGCCCUACAGCCCUUGGCAGCCAUGCGUACGGC,0.125
3,CGCAGUGAUGUUGCGAGUAGAUACAGGGAAGGAGCGCGGUAGUACGCAGGUAGGUCGCCCACGCAGUGAUGUUGCGUCAUAGGGU [Exclusion Arginine A GF6],0.0986
4,AGCAUUUUCAGAAGGAGCGUGAAUUAUUCUUAAGUAUAUUAUACGAGUGAUGUUCGUAUUUCACAGGUAGGUCGCUGAUAUAGCA [JR_SSArginiB_Sub003],0.0762
5,AUAGGCUAGCGAAACGCUAGCCUAACAGAUACCAGUCGCGAAAGCGACCCUUGGCAGCUGCUGAGUGAUGUUCAGGUGAAUGAAU,0.403
6,UGAUACCAGACUGAUACCAGCCACAGAGUCAAAGACUCUGAUAAAGGUACCAGUGAUGUUGGCCCUUGGCAGCAGUCUGGUAUCU [TheoBX 17 #SwitchBubble #StaticStem],0.151
7,UAACUUGCAGUGAUGUUGCAAGAACUGGAUACCAGCAUGGAAACAUGCCCUUGGCAGCCAGAAGGUAUCCUACAUCACAGAUACU [Design2],0.226
8,GAUAUAUAGACGGCCGCCACUUAUAAAUUUCAGUGAUGUUGAAAUGUUAAAUAACGAACACAAUAGAGGACCGGGUCAAAUAUCG [Same State Tryptophan B GF 2],0.187
9,AGGAUCCACCAGUGAUGUUGGAAAUACAUCAAGGAUAUGACGAAAGUCAGAAGGUGGUAGACUGGACAAAGUCCAGUUGGAUCCA [KL-SSFMN-A18],0.112
10,GUACACUCUCGAGUGAUGUUCGGUAAUAGAGAGGAUAUCGCUUUUGCGAGAAGGCUCUGAAUGAGGAAACUCGUUCUGUGUGUAC [FMN A 20],0.858
11,GCGCGUCAUGUCAGCGGUGACUACGUCGAUACCAGCAGGGAAACCUGCCCUUGGCAGCGACGCGCUGGAGUGAUGUUCCGACGGC [#2 Exclusion - Theophylline A Attempt #7 (HarryS)],0.318

# Same assay, conditions: Eterna round: R107; input ligand: tryptophan 2.4 mM
row,Sequence,apparent KD of K4 kissing-loop reporter [µM]
1,GGGCGUGGCGCGGCCGCCACUGGGCCUGGGUGCUCGCUGAGUGAUGUUCGUCGGCGGUUGGGUCGUAGGACCGGGUGCUGGUUGG [BDazzled - #9 SS Tryptophan B],0.575
2,AUAAACUUGCAGUGAUGUUGCAAGUAAGACUAGGAUAUCAGGAAACUGAGAAGGAGUCAUCUCCUUCAACUGCAAGAAUGAAGGA [[K1]-[K2]-[F1]-[F2]-[F]'-[K]'-[F]''_Design4],0.133
3,UUAGAUGAUUCAUCAAGAUUGAUGAGGAAACGAGGACCGGUACGGCCGCCACUCGAGUGAUGUUCGAGAACCUCAUCAAUCAAUU [AK4.4 Exc Tryptophan A],0.333
4,CCUAUCUCAUACGAUACCAGUCAAUGAUCUUUGAUCAAUGCCAUCACCGAGUGAUGUUCGGACCCUUGGCAGCGUAUGGGAUAGG [whbob_Ex_Theo_B_sa102],0.251
5,UGUCAUGGAAACAUGAACGUUGAAAUAAGACGAGGACCGGUACGGCCGCCACUCGAAUAAUGGUCAGUGAUGUUGACUGGAAUAA [KL-SSTryp-A form1 sub7 #dotplot2>1],0.0613
6,AGAUAGGGCUGAAGGAGCGUCGGAGAAGAGAAGAAGAAAUCCAGUGAUGUUGGAUAAAUCCGACAGGUAGGUCGCAGUUUUAUGA [hbob_SS_Arginine_B_2t137],0.119
7,AGUGAUGUGGGAAGGAGCGGUAUAUGAGUUCAGUGAUGUUGAAGUGAUGCUGUAGUGUUGUGCCAGGUAGGUCGCCUAGAUGUUA [KL-XARG B25],0.233
8,UAAGAUUCUGUCUCAUUGAGACAGAAUCAACGAGGACCGGUACGGCCGCCACUCGGGUCCUAGAGUGAUGUUCUAAUAAUAUAAU [AK1 SS Tryptophan A],0.176
9,ACGACUGGAUGAAUAACAUCUAGUCGAGAUCGAGGACCGGUACGGCCGCCACUCGAGCUAACUGCGAGUGAUGUUCGAUAAUAAA [#OpenEnded 2],0.0884
10,AGGAGCGUGGGAUGUAAAUCGCACGCUCCUCGAGGACCGGUACGGCCGCCACUCGCUCGCGCCGAGUGAUGUUCGGCCGGCGAAC [#2 Same State - Tryptophan A Attempt #13 (HarryS)],0.446
11,UGACUGGACUGAAGGAGCGUGGAAGGAGCGUAAGUAGUGAUGUUGCUUACAGGUAGGUCGCCGCAGGUAGGUCGCAGUCUAGUCU,0.0635
12,AGUGAUGUUGAGUUAUGUUAGUGAAGUGAUCGAGGACCGGUACGGCCGCCACUCGAGUGAUGAGUGAGUGAUGUUUGUUUAGUGA [bvbmullin],0.404
13,UGACUGGAUGGAAGGAGCGCUAAACUCCUAGUGAUGUUAGGGACACGAGACAAAGUCUUGAAGCAGGUAGGUCGCCAUCUAGUCU [FiskerMod 9 - Jieux - Same State - Arginine B],0.238
14,UCCUAGGCUCGAAAGAGCCUAGGAUUUACUCAGGAUAUCCGGAAACGGAGAAGGGAGUGACUAGUGAUGUUAGGGACUCCCUAUU,0.0944
15,UAAUAAUAAUGAUAAUAAUCAAGUGGUGGACGAGGACCGGUACGGCCGCCACUCGAAAAUGCAGUGAUGUUGUAAUACGGAUAAU [Exclusion - Tryptophan A (Freestyle 2)],0.0943
16,AGCGACUCGAAAGGGUCGCGGCUAAGGGAUACCAGUGAUGUUGGUCACCCUUGGCAGCCCAGAAGCCAAGCCACCAAAGGUGGCA [Omei KL Theo A Exc A v10],0.116
17,AGGUGAGAGUGAAGGAGCGAUCGCGCCAGUGAUGUUGGUGAGCAUGACGAAAGUCAUGCCGAUCAGGUAGGUCGCACUCUUACUC [Omei KL Arginine B SS B v3],0.798
18,ACGAAAUGCGACUCCUAGUUACACCGGGAAGGAGCGCGGAUAACCGCAGGUAGGUCGCCCGGAAGCCGGACCAGUGAUGUUGGUC [Exclusion Arginine A Gf 27],0.217
19,UGUAUGGACUGAAGGAGCGCUAGGAGUGUGAGUGAUGUUCAUACAAAUGUAUAGAUGGUCUGGCAGGUAGGUCGCAGUCCAUACU [KL-SSArg B4],0.184
20,CCCAAGGGCCUACCGGUAUGAUGGACGGAUACCAGAGGCGAAAGCCUCCCUUGGCAGCCGGGUGUAGUGAUGUUACUCCGGUAGU,0.072
21,GCGGGCCAGACGGCCGCCACUCCGGGCAGUGAUGUUGCGAAACUUCUACUAGAGUGAUGUUCUACGAGGACCGGGUCGGAACGCG [Exclusion Tryptophan B Gf 13],0.578
22,UCGAUGGCCAGCGAUACCAGCCCAGUGAUGUUGGGCACAUGGUUGCGGGAAAUCCCAUUGGGCCCUUGGCAGCGCUUGCAUAGGU [Cezaat],0.171

row,Sequence,apparent KD of K4 kissing-loop reporter [µM]
1,CAAAUGUUGUCAGGAUAUGAGCGCAGUGAUGUUGCGGUUGUAUUUAUGACUGGAGCAGCGUAAGCCUCAGAAGGGACAAGUUGCC [Qubioran],0.0993
2,AGCUGUAGCAGAAGGAGCGACAGUUAUUCUGAUAGUACUCUGAGUGAUGUUCAGAACGACUGUCAGGUAGGUCGCUGUUACAGCU [Arg B Ex t8b],0.162
3,UACUAUAUUCUGUCGUUUAUAUUAUUUUGUCAGGAUAUCGUUUAUUCGAGAAGGGACACUAUCUAGUGAUGUUAGAUUUUUCUUU [JR_Nu_ExcFMNA_Sub029],0.0677
4,AGGAUGUAGUGAUGUUAUAUAAGAAGUAAACGAGGACCGGUACGGCCGCCACUCGAAGCGGCUACUAGCGCGCGCGCGCGCGCGC [ExTryptoA.Ca],0.259
5,GGUGUUGUUUGUGCCGCCUUCCUCGUUCCUCGAGGACCGGUACGGCCGCCACUCGAGUGAUGUUUGGGUAGCGAUCCCUGCUAGU [Bdazzled - #12 Exc. Tryptophan A],0.892
6,AUCGUUGUCUGAGGAUAUCGGUUAUCUGUAGUGAUGUUACAGUAUAUUGAUAUUAAAGAUUCUAUUCGAGAAGGCAGACAACGUA [JR_Nu3_ExcFMNB_Sub023],0.0619
7,UCGGGCGGCUGAAGGAGCGGGCGGGCCCGAGUGAUGUUCGGGUGGGCUGUGAGGCCCGGAGCCCAGGUAGGUCGCGGUUCCGCCC [#2 Same State - Arginine B Attempt #28 (HarryS)],0.158
8,GGUUCCUCAGUGAUGUUGAGGUGACCUCGGCAGGAUAUAGGCAUUACUAGAAGGGCCAAAAGAACCCUGUGUAGCGACACAGGGA [Beerma],0.299
9,AAGGUAUCACCAACUUGUAACAUAGGUGAUACCAGCAUCGAAAGAUGCCCUUGGCAGCACCAACUUGCAGUGAUGUUGCAAGUAA [(T)'-(H)'-(T1)-(T2)-(H1)-(H2)_Design11],0.144
10,UGGAUAUCGUUUAGUCUGGUGAGCUCAGAUACCAGACUAGCGAUAGUCCCUUGGCAGCUGAUUAUGAUUGAGUGAUGUUCAAUCG [Theo A Ex t9b],0.157
11,AGUGAUGUUUCUUUUAAGAGUGAUGUUUUUCGAGGACCGGUACGGCCGCCACUCGAGUGAUGAGUGCGUUGUUGUGAUGUUUAGU [#12 K4 Tryptophan A Exclusion],0.303
12,GCCGUACGCAUGGAUACCAGCUGCGAAGUGAUGUUUCGGGCGAUCAAAGGAUCGCCCUACAGCCCUUGGCAGCCAUGCGUACGGC,0.118
13,CGCAGUGAUGUUGCGAGUAGAUACAGGGAAGGAGCGCGGUAGUACGCAGGUAGGUCGCCCACGCAGUGAUGUUGCGUCAUAGGGU [Exclusion Arginine A GF6],0.0957
14,AGCAUUUUCAGAAGGAGCGUGAAUUAUUCUUAAGUAUAUUAUACGAGUGAUGUUCGUAUUUCACAGGUAGGUCGCUGAUAUAGCA [JR_SSArginiB_Sub003],0.0468
15,AUAGGCUAGCGAAACGCUAGCCUAACAGAUACCAGUCGCGAAAGCGACCCUUGGCAGCUGCUGAGUGAUGUUCAGGUGAAUGAAU,0.374
16,UGAUACCAGACUGAUACCAGCCACAGAGUCAAAGACUCUGAUAAAGGUACCAGUGAUGUUGGCCCUUGGCAGCAGUCUGGUAUCU [TheoBX 17 #SwitchBubble #StaticStem],0.141
17,UAACUUGCAGUGAUGUUGCAAGAACUGGAUACCAGCAUGGAAACAUGCCCUUGGCAGCCAGAAGGUAUCCUACAUCACAGAUACU [Design2],0.197
18,GAUAUAUAGACGGCCGCCACUUAUAAAUUUCAGUGAUGUUGAAAUGUUAAAUAACGAACACAAUAGAGGACCGGGUCAAAUAUCG [Same State Tryptophan B GF 2],0.171
19,AGGAUCCACCAGUGAUGUUGGAAAUACAUCAAGGAUAUGACGAAAGUCAGAAGGUGGUAGACUGGACAAAGUCCAGUUGGAUCCA [KL-SSFMN-A18],0.0664
20,GUACACUCUCGAGUGAUGUUCGGUAAUAGAGAGGAUAUCGCUUUUGCGAGAAGGCUCUGAAUGAGGAAACUCGUUCUGUGUGUAC [FMN A 20],0.894
21,GCGCGUCAUGUCAGCGGUGACUACGUCGAUACCAGCAGGGAAACCUGCCCUUGGCAGCGACGCGCUGGAGUGAUGUUCCGACGGC [#2 Exclusion - Theophylline A Attempt #7 (HarryS)],0.159
